This series concerns the molecule itself. Kind of series: native gel or EMSA.

The stoichiometry N is a count of units in the complex or per binding partner.

B1: MagKatG1, mesophilic catalase–peroxidase from Magnaporthe oryzae (enzyme)
chain: MGECPLRTANVAGGGTRNRDWWPNTLKLNILRQHTEATNPYDPNFDYAEAFKSLDYEGLKKDLRALMTDSQEYWPADFGHYGGLFVRMAWHSAGTYRVMDGRGGGGQGQQRFAPLNSWPDNVSLDKARRLLWPIKQKYGNKISWADLMLLTGNVALEDMGFKTFGFAGGRPDTWEADESTYWGGETTWLGNEVRYSSGNEGHKESGVIDGSESKKGHKDIHTRDLEKPVSAAHMGLIYVNPEGPDGIPDPVAAARDIRTTFSRMAMNDEETVALIAGGHTVGKTHGAAPSDNVGPEPEAAPIENQGLGWSNKHGSGKGPDTITSGLEVIWTKEPAKFTMNYLEYLFKYEWELTKSPAGANQWVAKNAEEFIPDAFDPSKKHKPRMLTTDLSLRFDPEYEKISRRFLENPEQFKDAFARAWFKLLHRDMGPRSRWLGPEVPKETLLWEDPIPTPDHPIIDGSDVDSLKKAILATGVAPSKLIQTAWASASTFRGGDKRGGANGARIRLEPQNKWEVNNPQQLAEVLKALEGVKADFEKSGKKVSIADLIVLAGVAAVEQAAGVPVPFTPGRGDATQEQTDVESFTHLEPAADAFRNYGKGTSRVTTEQIMVDRAQQLTLTAPELTVLVGGLRVLGANYDGSSHGVWTDKPGKLTNDFFVTLLDPYTSWKSVDGEVFEGTNSKSGKKLTGTRADLVFGSHSELRALAEVYGSADGQQKFTKDFVAAWDKVMNLDRFDVRRGIYDETRLKSKL
notes: also called Magnaporthe oryzae katG
On to B1, for which the “stoichiometry N” value turned out to be 2.

Source of the values: paper PMC10376177, “Comparison of Fungal Thermophilic and Mesophilic Catalase–Peroxidases for Their Antioxidative Properties” (Antioxidants, 2023).
